Test results published in US20150125397A1, “DUAL SPECIFIC BINDING PROTEINS DIRECTED AGAINST IMMUNE CELL RECEPTORS AND AUTOANTIGENS” (ABBVIE INC., priority 2013, published 2015).

Target: Human IgM (Homo sapiens, UniProt P01871)
Assay: IgM binding assay (human IgM)

Sequence of Human IgM (P01871 1-433 limits assumed): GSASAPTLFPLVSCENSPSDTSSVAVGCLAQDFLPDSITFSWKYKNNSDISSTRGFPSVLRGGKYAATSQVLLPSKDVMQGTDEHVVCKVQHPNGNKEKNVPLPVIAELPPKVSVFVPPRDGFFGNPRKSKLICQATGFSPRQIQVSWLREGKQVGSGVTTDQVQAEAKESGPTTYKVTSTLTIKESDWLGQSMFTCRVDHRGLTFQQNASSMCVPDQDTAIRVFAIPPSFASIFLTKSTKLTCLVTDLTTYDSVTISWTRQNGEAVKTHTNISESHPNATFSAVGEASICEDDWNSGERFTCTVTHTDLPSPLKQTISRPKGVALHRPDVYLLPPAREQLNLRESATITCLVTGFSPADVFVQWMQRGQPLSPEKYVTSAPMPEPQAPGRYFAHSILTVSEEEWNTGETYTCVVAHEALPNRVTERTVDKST
Sequence of Human IgM (P01591 23-159 partner): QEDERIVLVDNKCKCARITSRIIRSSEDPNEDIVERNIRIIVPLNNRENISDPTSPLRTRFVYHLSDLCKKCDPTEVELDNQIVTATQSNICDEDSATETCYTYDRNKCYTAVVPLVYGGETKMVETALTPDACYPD

B1: DVD3769: DVD-Ig: VD1 hIgM (HB-57.3), SL linker, VD2 DNA (PA4); heavy SEQ ID NO 80, light 81 (antibody)
heavy: QVQLQQPGAEFVKPGAPVKLSCKASGYPFTTYWVNWMKQRPGRGLEWIGRIDPYDSETLYNQKFKDKATLTVDKSSSTAYIQLSSLTSEDSAVYYCARETYDYPFAYWGQGTLVTVSSASTKGPEVQLVESGGGLVKPGGSLKLSCVASGFTFSTYAMSWVRQTPTKRLEWVATISRGGVSTYYPDTVKGRFTISRDNAKNTLYLQMSSLRSEDTAMYYCARPPTIVTTWFAYWGQGTLVTVSS
light: DIVMTQSPSSLAMSVGQKVTMSCKSSQSLLNSSNQKNYLAWYQQKPGQSPELLVYFASTRESGVPDRFIGSGSGTDFTLTISSVQAEDLADYFCQQHYSTPFTFGSETKLEIKRTVAAPSVFIFPPDVVMTQTPLSLPVSLGDQASISCRSSQSLVHSNGNTYLHWYLQKPGQSPKLLIYKVSNRFSGVPDRFSGSGSGTDFTLKISRVEAEDLGAYFCSQSTHVPYTFGGPTRLEIKR
For B1, the “potency in human IgM binding assay” value was “highest potency”.
